“And” between values parts separate entries of the source, which are not always exact repeats. Identical values can stand only once.

This is an account of results in publication doi:10.1101/2021.05.23.445342.

The target in experiment [1] is Calcineurin (human PPP3CA / PPP3R1 heterodimer) (human) (UniProt Q08209). The experiment can be described thus: AUC.
Experiment [2] addresses Biotin-Cys-AKAP5c_(ILVF->SA) (human) (UniProt P24588). The experiment is described as follows: SPR. (Surface plasmon resonance follows binding to a sensor surface in real time, without labels.)
The target of experiment [3] is Biotin-Cys-AKAP5c (human) (UniProt P24588). The experiment can be described thus: SPR.

The Kd is the equilibrium constant for the complex coming apart. For “Calcineurin (human PPP3CA / PPP3R1 heterodimer) (from UniProt Q08209 1-521; P63098 1-170) (complex)”, in experiment [1], the dissociation constant (Kd) was found to be 100 µM and the percent heterotetramer is 8%. Besides, the Kd of the one main surface site class in experiment [2] was 0.1 µM and 1 µM. For the same substance, in experiment [3], the Kd of a further surface site class was in the range of 1 to 10 µM and the Kd of surface site class 1 (one or possibly two very similar sites) lay in the range of 0.01 to 0.1 µM.
